# Reference: patent US20230014398A1 (University of Texas, published 2023)
# T1: Mouse 2Ig-B7-H3 extracellular domain (mouse, UniProt Q8VE98 29-248)
# T1 construct: extracellular domain; Purchased recombinant extracellular domain; also called murine 2Ig-B7-H3
# T1 sequence (looked up): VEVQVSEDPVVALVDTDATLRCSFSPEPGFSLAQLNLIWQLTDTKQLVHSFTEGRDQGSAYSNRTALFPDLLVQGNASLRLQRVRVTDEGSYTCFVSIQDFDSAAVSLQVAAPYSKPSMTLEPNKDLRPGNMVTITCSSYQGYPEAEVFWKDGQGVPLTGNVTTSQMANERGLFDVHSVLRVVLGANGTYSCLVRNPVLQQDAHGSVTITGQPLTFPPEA
# T2: Human 4Ig-B7-H3 extracellular domain (human, UniProt Q5ZPR3 29-466)
# T2 construct: extracellular domain
# T2 sequence (looked up): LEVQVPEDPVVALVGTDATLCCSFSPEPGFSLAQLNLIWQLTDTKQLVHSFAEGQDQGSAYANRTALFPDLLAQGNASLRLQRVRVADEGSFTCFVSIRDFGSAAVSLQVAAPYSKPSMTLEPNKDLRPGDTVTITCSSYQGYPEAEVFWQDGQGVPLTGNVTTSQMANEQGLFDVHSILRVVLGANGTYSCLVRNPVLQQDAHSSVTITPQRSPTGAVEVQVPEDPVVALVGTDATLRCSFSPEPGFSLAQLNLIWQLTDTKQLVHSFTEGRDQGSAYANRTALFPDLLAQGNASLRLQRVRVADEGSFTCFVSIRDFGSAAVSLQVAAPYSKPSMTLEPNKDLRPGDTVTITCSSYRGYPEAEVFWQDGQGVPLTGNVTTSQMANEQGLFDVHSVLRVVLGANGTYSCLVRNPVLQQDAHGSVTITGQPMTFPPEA
# T3: Human 2Ig-B7-H3 extracellular domain (human, UniProt Q5ZPR3 29-466)
# T3 chain: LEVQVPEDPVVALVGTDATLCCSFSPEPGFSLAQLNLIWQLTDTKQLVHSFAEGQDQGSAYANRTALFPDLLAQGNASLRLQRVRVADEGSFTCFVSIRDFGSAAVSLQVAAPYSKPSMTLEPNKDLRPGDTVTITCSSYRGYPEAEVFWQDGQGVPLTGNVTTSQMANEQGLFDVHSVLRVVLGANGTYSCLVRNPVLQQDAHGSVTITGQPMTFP
# T4: Human 4Ig-B7-H3 expressed on cells (human, UniProt Q5ZPR3 29-534)
# T4 construct: whole, on cells; also called native 4Ig-B7-H3 on HeLa and HCT116 cells; human 4Ig-B7-H3 on transduced 4T1, B16F10 and L cells
# T4 sequence (looked up): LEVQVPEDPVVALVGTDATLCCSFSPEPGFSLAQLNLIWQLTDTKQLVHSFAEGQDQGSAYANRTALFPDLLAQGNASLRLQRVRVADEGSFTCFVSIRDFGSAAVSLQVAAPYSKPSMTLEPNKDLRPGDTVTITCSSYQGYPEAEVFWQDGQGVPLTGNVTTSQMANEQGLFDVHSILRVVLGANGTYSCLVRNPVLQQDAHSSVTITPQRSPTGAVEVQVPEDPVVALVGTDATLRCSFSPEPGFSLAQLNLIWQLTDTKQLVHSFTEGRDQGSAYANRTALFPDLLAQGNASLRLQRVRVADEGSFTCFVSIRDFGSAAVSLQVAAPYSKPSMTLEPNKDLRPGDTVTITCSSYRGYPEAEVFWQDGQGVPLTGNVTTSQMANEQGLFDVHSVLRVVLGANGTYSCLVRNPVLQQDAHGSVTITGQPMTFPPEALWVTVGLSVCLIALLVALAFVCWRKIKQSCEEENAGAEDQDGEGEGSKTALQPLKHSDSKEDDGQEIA
# T5: Murine 2Ig-B7-H3 expressed on cells (mouse, UniProt Q8VE98 29-316)
# T5 construct: whole, on cells; also called murine B7-H3 expressed on tumor cells; 2Ig-B7-H3 on Pan02 and 4T1 cells
# T5 sequence (looked up): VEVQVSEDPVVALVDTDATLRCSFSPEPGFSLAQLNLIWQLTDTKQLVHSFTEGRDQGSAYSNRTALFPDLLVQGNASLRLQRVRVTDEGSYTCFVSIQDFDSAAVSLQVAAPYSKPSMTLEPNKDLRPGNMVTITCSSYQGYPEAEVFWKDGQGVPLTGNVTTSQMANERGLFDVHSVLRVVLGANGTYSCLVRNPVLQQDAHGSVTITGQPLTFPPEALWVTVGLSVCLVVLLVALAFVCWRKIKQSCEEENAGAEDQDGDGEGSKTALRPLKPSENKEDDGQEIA
# How the values were obtained:
# [1] = target: TLR5 on HCT116 cells (UniProt O60602); test: cell-based or functional assay
# [2] = target: T1, Mouse 2Ig-B7-H3 extracellular domain; test: biolayer interferometry (Octet), MIL33B captured on the probe, extracellular domain in solution
# Experimental: (§1) Dissociation constants, Kd, were determined utilizing biolayer interferometry (Octet) assays. […] The surface is then placed into a solution of analyte and the phase shift indicating binding was measured over time. The probe was then moved into a solution without analyte and the time course of off-binding was measured. This cycle was repeated for multiple analyte concentrations, and the Kd was calculated from global curve fitting of the concentration- and time-dependence of the analyte binding to the antibody.
# (§2) The extracellular domains of the indicated B7 family proteins were purchased from R&D Systems. All proteins were validated by the vendor to be both pure and functional.
# [3] = target: T2, Human 4Ig-B7-H3 extracellular domain; test: as above
# Experimental: as §1, §2
# [4] = target: T3, Human 2Ig-B7-H3 extracellular domain; test: as above
# Experimental: as §1, §2
# [5] = target: T1, Mouse 2Ig-B7-H3 extracellular domain; test: ratio of Kd values, told as the reason for using 100 ug/mL MIL33B-A594 on Pan02 cells
# [6] = target: T2, Human 4Ig-B7-H3 extracellular domain; test: biolayer interferometry (Octet), comparison of Kd values of Table 6
# Text: as §2
# [7] = target: T2, Human 4Ig-B7-H3 extracellular domain; test: ELISA, extracellular domain plated on 96-well plates, MIL33B titrated, absorbance read
# Text: The extracellular domains of human 4Ig-B7-H3 and murine 2Ig-B7-H3 were purchased and plated down onto 96-well plates. […] Plates were then washed and assessed for antibody binding through absorbance measurements.
# [8] = target: T2, Human 4Ig-B7-H3 extracellular domain; test: ELISA
# [9] = target: T4, Human 4Ig-B7-H3 expressed on cells; test: live cell immunofluorescence microscopy on 4T1 cells transduced with human 4Ig-B7-H3, labeled antibody at 1 µg/mL
# Text: Murine breast tumor, 4T1 cells (ATCC), were stably transduced with human 4Ig-B7-H3 or empty vector using lentiviral constructs.
# (§3) Cells were washed and imaged by fluorescence microscopy (TiE, Nikon).
# [10] = target: T5, Murine 2Ig-B7-H3 expressed on cells; test: live cell immunofluorescence microscopy on Pan02 cells, MIL33B-A594 at 100 µg/mL; one panel blocked with unlabeled MIL33B
# Text: as §3
# [11] = target: T4, Human 4Ig-B7-H3 expressed on cells; test: in vivo PET of 89Zr-DFO-labeled antibody in mice bearing 4T1 or B16F10 tumors with human 4Ig-B7-H3 or vector control, %ID/cc of tumor VOIs at 24 and 72 hr
# Text: (§4) Immune competent mice bearing subcutaneous 4T1 tumors expressing human 4Ig-B7-H3 or negative vector (see Western blots in FIG. 3) were utilized. […] Similarly, B16F10 cells were transduced with human 4Ig-B7-H3 or empty vector. These cells have less endogenous murine 2Ig-B7H3 than 4T1 tumors.
# [12] = target: T5, Murine 2Ig-B7-H3 expressed on cells; test: PET imaging in mice with 4T1 or B16F10 tumors carrying the negative (empty) vector, with endogenous murine 2Ig-B7-H3 only, 24 and 72 hr after injection
# Text: as §4
# TLR5 on HCT116 cells, sequence (O60602 21-858 limits assumed): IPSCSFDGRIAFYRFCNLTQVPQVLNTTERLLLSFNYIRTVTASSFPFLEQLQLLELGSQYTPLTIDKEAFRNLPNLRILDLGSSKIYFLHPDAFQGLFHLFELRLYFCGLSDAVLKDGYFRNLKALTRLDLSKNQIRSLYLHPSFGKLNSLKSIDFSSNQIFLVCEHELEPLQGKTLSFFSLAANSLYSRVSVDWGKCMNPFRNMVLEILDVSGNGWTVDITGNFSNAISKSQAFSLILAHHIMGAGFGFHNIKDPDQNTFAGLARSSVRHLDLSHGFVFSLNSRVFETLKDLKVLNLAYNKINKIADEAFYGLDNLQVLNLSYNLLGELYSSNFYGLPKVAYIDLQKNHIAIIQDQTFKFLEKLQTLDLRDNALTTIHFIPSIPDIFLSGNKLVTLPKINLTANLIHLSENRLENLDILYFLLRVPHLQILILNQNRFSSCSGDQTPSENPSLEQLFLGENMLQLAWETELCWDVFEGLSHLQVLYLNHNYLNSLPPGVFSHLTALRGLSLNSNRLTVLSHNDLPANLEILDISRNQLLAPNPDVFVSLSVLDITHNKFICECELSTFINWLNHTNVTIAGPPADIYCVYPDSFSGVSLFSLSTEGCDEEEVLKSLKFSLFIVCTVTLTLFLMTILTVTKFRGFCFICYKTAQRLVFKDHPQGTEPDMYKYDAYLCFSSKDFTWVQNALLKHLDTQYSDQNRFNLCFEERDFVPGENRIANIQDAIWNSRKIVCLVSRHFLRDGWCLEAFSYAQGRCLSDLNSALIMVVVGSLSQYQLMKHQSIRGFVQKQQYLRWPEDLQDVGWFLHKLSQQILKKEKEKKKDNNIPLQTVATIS
molecule,measurement,setting,value
Purified flagellin (ligand),activation of NF-kB (kB-RE5-IkBa-Fluc reporter in HCT116 cells),[1],1.8 nM
"MIL33B monoclonal antibody (antibody, IgG2a, V domains shown, Mouse hybridoma antibody from an NZBWF1/J mouse; constant regions are not; also called MIL33B mAb; MIL33B antibody) VH: EVQLQQSGPELVKPGASVKMSCKASGYTFTSYVMHWVRQSPGQGLEGIGYINSYSDGTKYNEKFKGKATLTSDKSSSTAYMELSGLTSEDSAVYYCARWGGLGNGAMDYWGQGTSVTVSS VL: QIVLTQSPAIMSASPGEKVTMTCSVSSSVNYMHWYQQKSGTSPKRWIYDTSKLASGVPARFSASGSGTSYSLTISSMEAEDAATYYCQQWTSNPLTFGAGTKLELK",Kd,[2],41.1 nM
same,Kd,[3],0.0723 nM
same,Kd,[4],0.58 nM
same,fold shift in Kd from human 4Ig-B7-H3 to murine 2Ig-B7-H3,[5],~100 fold
same,fold better binding than to other B7 family members,[6],≥ 1000 fold
same,EC50 (read off the curve),[7],~100 pM
"Flagellin-conjugated MIL33B (other, MIL33B (mouse IgG2a) is chemically conjugated to purified flagellin through a commercial linker kit. Attachment sites and the number of flagellins per antibody are not stated, and the letters cannot carry them., Chemical conjugate of MIL33B (mouse IgG2a) and flagellin; also called MIL33B-flgn conjugate; MIL33B-flagellin conjugate; not shown: Flagellin (purified, InvivoGen)) VH: EVQLQQSGPELVKPGASVKMSCKASGYTFTSYVMHWVRQSPGQGLEGIGYINSYSDGTKYNEKFKGKATLTSDKSSSTAYMELSGLTSEDSAVYYCARWGGLGNGAMDYWGQGTSVTVSS VL: QIVLTQSPAIMSASPGEKVTMTCSVSSSVNYMHWYQQKSGTSPKRWIYDTSKLASGVPARFSASGSGTSYSLTISSMEAEDAATYYCQQWTSNPLTFGAGTKLELK",EC50,[8],36 nM
"MIL33B labeled with Alexa594 fluorophore (antibody, V domains shown, Alexa594 fluorophore on the antibody, residues not stated, also called MIL33B-A594; Alexa594-labeled MIL33B) VH: EVQLQQSGPELVKPGASVKMSCKASGYTFTSYVMHWVRQSPGQGLEGIGYINSYSDGTKYNEKFKGKATLTSDKSSSTAYMELSGLTSEDSAVYYCARWGGLGNGAMDYWGQGTSVTVSS VL: QIVLTQSPAIMSASPGEKVTMTCSVSSSVNYMHWYQQKSGTSPKRWIYDTSKLASGVPARFSASGSGTSYSLTISSMEAEDAATYYCQQWTSNPLTFGAGTKLELK",binding result,[9],binds
same,binding result,[10],binds
"MIL33B conjugated with DFO and radiolabeled with 89Zr (antibody, mouse IgG2a, V domains shown, DFO chelator with 89Zr on the antibody, residues not stated, also called MIL33B-DFO; radiolabeled MIL33B antibody) VH: EVQLQQSGPELVKPGASVKMSCKASGYTFTSYVMHWVRQSPGQGLEGIGYINSYSDGTKYNEKFKGKATLTSDKSSSTAYMELSGLTSEDSAVYYCARWGGLGNGAMDYWGQGTSVTVSS VL: QIVLTQSPAIMSASPGEKVTMTCSVSSSVNYMHWYQQKSGTSPKRWIYDTSKLASGVPARFSASGSGTSYSLTISSMEAEDAATYYCQQWTSNPLTFGAGTKLELK",binding result,[11],binds
same,binding result,[12],binds
